According to patent US20220048967A1 (published 2022):
Positions count from the first letter of the chain named. Numbered stars: 1 amine (or outer) side, 2 acyl side, 3 side chain; on linkers, the order of the positions; unused ones are H or OH. Square brackets hold non-standard residues; d marks the D form. Side chains are listed from the residue outwards. Ends that are not written are not given here. * marks the point of attachment. C20 diacid = O=C(O)CCCCCCCCCCCCCCCCCCC(=O)*; C18 diacid = O=C(O)CCCCCCCCCCCCCCCCC(=O)*; γGlu = O=C(O)[C@H](CCC(=O)[*:2])N[*:1]; AEEA = NCCOCCOCC(=O)O; Aib = CC(C)(N)C(=O)O

B1: Example 289 (peptide)
peptide: YXEGTFTSDYSIXLDKKAQXEFIEYLIAGGPSSGAPPPS
modifications: Aib2, αMeL13, (2-[2-(2-Amino-ethoxy)-ethoxy]-acetyl)2-(γ-Glu)-CO-(CH2)18-CO2H on K17, Aib20, C-terminal NH2
B2: Example 292 (peptide)
peptide: B1 peptide with Y1X, Y25X
modifications: D-Tyr1, Aib2, αMeL13, (2-[2-(2-Amino-ethoxy)-ethoxy]-acetyl)2-(γ-Glu)-CO-(CH2)18-CO2H on K17, Aib20, αMeY25, C-terminal NH2
B3: Example 290 (peptide)
peptide: B1 peptide with Y1X
modifications: D-Tyr1, Aib2, αMeL13, (2-[2-(2-Amino-ethoxy)-ethoxy]-acetyl)2-(γ-Glu)-CO-(CH2)18-CO2H on K17, Aib20, C-terminal NH2
B4: Example 291 (peptide)
peptide: B1 peptide with Y1X, K16X, E21A, E24X
modifications: D-Tyr1, Aib2, αMeL13, Orn16, (2-[2-(2-Amino-ethoxy)-ethoxy]-acetyl)2-(γ-Glu)-CO-(CH2)18-CO2H on K17, Aib20, D-Glu24, C-terminal NH2
B5: Example 293 (peptide)
peptide: B1 peptide with Y1X, K16X, Y25X
modifications: D-Tyr1, Aib2, αMeL13, Orn16, (2-[2-(2-Amino-ethoxy)-ethoxy]-acetyl)2-(γ-Glu)-CO-(CH2)18-CO2H on K17, Aib20, αMeY25, C-terminal NH2
B6: Example 272 (peptide)
peptide: Y[Aib]EGTFTSDYSILLDKK([AEEA-AEEA-γGlu-C18 diacid])AQ[Aib]AFIEYLIAGGPSSG-NH2
modifications: N-terminus assumed
SMILES: CC[C@H](C)[C@H](NC(=O)[C@H](CC(C)C)NC(=O)[C@H](Cc1ccc(O)cc1)NC(=O)[C@H](CCC(=O)O)NC(=O)[C@@H](NC(=O)[C@H](Cc1ccccc1)NC(=O)[C@H](C)NC(=O)C(C)(C)NC(=O)[C@H](CCC(N)=O)NC(=O)[C@H](C)NC(=O)[C@H](CCCCNC(=O)COCCOCCNC(=O)COCCOCCNC(=O)CC[C@H](NC(=O)CCCCCCCCCCCCCCCCC(=O)O)C(=O)O)NC(=O)[C@H](CCCCN)NC(=O)[C@H](CC(=O)O)NC(=O)[C@H](CC(C)C)NC(=O)[C@H](CC(C)C)NC(=O)[C@@H](NC(=O)[C@H](CO)NC(=O)[C@H](Cc1ccc(O)cc1)NC(=O)[C@H](CC(=O)O)NC(=O)[C@H](CO)NC(=O)[C@@H](NC(=O)[C@H](Cc1ccccc1)NC(=O)[C@@H](NC(=O)CNC(=O)[C@H](CCC(=O)O)NC(=O)C(C)(C)NC(=O)[C@@H](N)Cc1ccc(O)cc1)[C@@H](C)O)[C@@H](C)O)[C@@H](C)CC)[C@@H](C)CC)C(=O)N[C@@H](C)C(=O)NCC(=O)NCC(=O)N1CCC[C@H]1C(=O)N[C@@H](CO)C(=O)N[C@@H](CO)C(=O)NCC(N)=O
B7: Example 273 (peptide)
peptide: Y[Aib]EGTFTSDYSILLDKK([AEEA-AEEA-γGlu-C18 diacid])AQ[Aib]AFIEYLIAGG-NH2
modifications: N-terminus assumed
SMILES: CC[C@H](C)[C@H](NC(=O)[C@H](CC(C)C)NC(=O)[C@H](Cc1ccc(O)cc1)NC(=O)[C@H](CCC(=O)O)NC(=O)[C@@H](NC(=O)[C@H](Cc1ccccc1)NC(=O)[C@H](C)NC(=O)C(C)(C)NC(=O)[C@H](CCC(N)=O)NC(=O)[C@H](C)NC(=O)[C@H](CCCCNC(=O)COCCOCCNC(=O)COCCOCCNC(=O)CC[C@H](NC(=O)CCCCCCCCCCCCCCCCC(=O)O)C(=O)O)NC(=O)[C@H](CCCCN)NC(=O)[C@H](CC(=O)O)NC(=O)[C@H](CC(C)C)NC(=O)[C@H](CC(C)C)NC(=O)[C@@H](NC(=O)[C@H](CO)NC(=O)[C@H](Cc1ccc(O)cc1)NC(=O)[C@H](CC(=O)O)NC(=O)[C@H](CO)NC(=O)[C@@H](NC(=O)[C@H](Cc1ccccc1)NC(=O)[C@@H](NC(=O)CNC(=O)[C@H](CCC(=O)O)NC(=O)C(C)(C)NC(=O)[C@@H](N)Cc1ccc(O)cc1)[C@@H](C)O)[C@@H](C)O)[C@@H](C)CC)[C@@H](C)CC)C(=O)N[C@@H](C)C(=O)NCC(=O)NCC(N)=O
B8: Example 288 (peptide)
peptide: Y[Aib]EGTFTSDYSILLDKK([AEEA-AEEA-γGlu-C20 diacid])AQ[Aib]AFIEYLIAGGPSSGAPPPS-NH2
modifications: N-terminus assumed
SMILES: CC[C@H](C)[C@H](NC(=O)[C@H](CC(C)C)NC(=O)[C@H](Cc1ccc(O)cc1)NC(=O)[C@H](CCC(=O)O)NC(=O)[C@@H](NC(=O)[C@H](Cc1ccccc1)NC(=O)[C@H](C)NC(=O)C(C)(C)NC(=O)[C@H](CCC(N)=O)NC(=O)[C@H](C)NC(=O)[C@H](CCCCNC(=O)COCCOCCNC(=O)COCCOCCNC(=O)CC[C@H](NC(=O)CCCCCCCCCCCCCCCCCCC(=O)O)C(=O)O)NC(=O)[C@H](CCCCN)NC(=O)[C@H](CC(=O)O)NC(=O)[C@H](CC(C)C)NC(=O)[C@H](CC(C)C)NC(=O)[C@@H](NC(=O)[C@H](CO)NC(=O)[C@H](Cc1ccc(O)cc1)NC(=O)[C@H](CC(=O)O)NC(=O)[C@H](CO)NC(=O)[C@@H](NC(=O)[C@H](Cc1ccccc1)NC(=O)[C@@H](NC(=O)CNC(=O)[C@H](CCC(=O)O)NC(=O)C(C)(C)NC(=O)[C@@H](N)Cc1ccc(O)cc1)[C@@H](C)O)[C@@H](C)O)[C@@H](C)CC)[C@@H](C)CC)C(=O)N[C@@H](C)C(=O)NCC(=O)NCC(=O)N1CCC[C@H]1C(=O)N[C@@H](CO)C(=O)N[C@@H](CO)C(=O)NCC(=O)N[C@@H](C)C(=O)N1CCC[C@H]1C(=O)N1CCC[C@H]1C(=O)N1CCC[C@H]1C(=O)N[C@@H](CO)C(N)=O
B9: Example 275 (peptide)
peptide: Y[Aib]EGTFTSDYSILLDKK([AEEA-AEEA-γGlu-C18 diacid])AQPAFIEYLIEGG-NH2
modifications: N-terminus assumed
SMILES: CC[C@H](C)[C@H](NC(=O)[C@H](CC(C)C)NC(=O)[C@H](Cc1ccc(O)cc1)NC(=O)[C@H](CCC(=O)O)NC(=O)[C@@H](NC(=O)[C@H](Cc1ccccc1)NC(=O)[C@H](C)NC(=O)[C@@H]1CCCN1C(=O)[C@H](CCC(N)=O)NC(=O)[C@H](C)NC(=O)[C@H](CCCCNC(=O)COCCOCCNC(=O)COCCOCCNC(=O)CC[C@H](NC(=O)CCCCCCCCCCCCCCCCC(=O)O)C(=O)O)NC(=O)[C@H](CCCCN)NC(=O)[C@H](CC(=O)O)NC(=O)[C@H](CC(C)C)NC(=O)[C@H](CC(C)C)NC(=O)[C@@H](NC(=O)[C@H](CO)NC(=O)[C@H](Cc1ccc(O)cc1)NC(=O)[C@H](CC(=O)O)NC(=O)[C@H](CO)NC(=O)[C@@H](NC(=O)[C@H](Cc1ccccc1)NC(=O)[C@@H](NC(=O)CNC(=O)[C@H](CCC(=O)O)NC(=O)C(C)(C)NC(=O)[C@@H](N)Cc1ccc(O)cc1)[C@@H](C)O)[C@@H](C)O)[C@@H](C)CC)[C@@H](C)CC)C(=O)N[C@@H](CCC(=O)O)C(=O)NCC(=O)NCC(N)=O
B10: Example 274 (peptide)
peptide: Y[Aib]EGTFTSDYSILLDKK([AEEA-AEEA-γGlu-C18 diacid])AQPAFIEYLIEGGPSSG-NH2
modifications: N-terminus assumed
SMILES: CC[C@H](C)[C@H](NC(=O)[C@H](CC(C)C)NC(=O)[C@H](Cc1ccc(O)cc1)NC(=O)[C@H](CCC(=O)O)NC(=O)[C@@H](NC(=O)[C@H](Cc1ccccc1)NC(=O)[C@H](C)NC(=O)[C@@H]1CCCN1C(=O)[C@H](CCC(N)=O)NC(=O)[C@H](C)NC(=O)[C@H](CCCCNC(=O)COCCOCCNC(=O)COCCOCCNC(=O)CC[C@H](NC(=O)CCCCCCCCCCCCCCCCC(=O)O)C(=O)O)NC(=O)[C@H](CCCCN)NC(=O)[C@H](CC(=O)O)NC(=O)[C@H](CC(C)C)NC(=O)[C@H](CC(C)C)NC(=O)[C@@H](NC(=O)[C@H](CO)NC(=O)[C@H](Cc1ccc(O)cc1)NC(=O)[C@H](CC(=O)O)NC(=O)[C@H](CO)NC(=O)[C@@H](NC(=O)[C@H](Cc1ccccc1)NC(=O)[C@@H](NC(=O)CNC(=O)[C@H](CCC(=O)O)NC(=O)C(C)(C)NC(=O)[C@@H](N)Cc1ccc(O)cc1)[C@@H](C)O)[C@@H](C)O)[C@@H](C)CC)[C@@H](C)CC)C(=O)N[C@@H](CCC(=O)O)C(=O)NCC(=O)NCC(=O)N1CCC[C@H]1C(=O)N[C@@H](CO)C(=O)N[C@@H](CO)C(=O)NCC(N)=O

Legend:
[1] = molecular target: T1, human gastric inhibitory peptide receptor (GIPR) (human, UniProt P48546 22-466); test: cell-based or functional assay
T1 sequence (looked up): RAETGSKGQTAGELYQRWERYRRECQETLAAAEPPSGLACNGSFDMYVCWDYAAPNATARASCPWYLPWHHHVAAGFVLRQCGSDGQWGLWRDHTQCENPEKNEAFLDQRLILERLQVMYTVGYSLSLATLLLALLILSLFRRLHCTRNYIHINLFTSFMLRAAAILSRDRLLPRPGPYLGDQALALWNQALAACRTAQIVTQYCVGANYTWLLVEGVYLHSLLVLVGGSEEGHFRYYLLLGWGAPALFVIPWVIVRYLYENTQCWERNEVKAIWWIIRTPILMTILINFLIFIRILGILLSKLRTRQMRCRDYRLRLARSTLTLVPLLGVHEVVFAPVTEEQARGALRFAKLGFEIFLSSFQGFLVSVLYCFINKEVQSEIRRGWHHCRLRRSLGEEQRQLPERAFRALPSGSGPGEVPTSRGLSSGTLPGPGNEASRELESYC

[2] = molecular target: human GLP-1 receptor (GLP-1R) (human, UniProt P43220 24-463); test: cell-based or functional assay

| Binder | hGIPR cAMP EC50 ratio [1] | hGIPR cAMP Rel EC50 [1] [nM] | hGLP1R cAMP EC50 ratio [2] | hGLP1R cAMP Rel EC50 [2] [nM] |
| --- | --- | --- | --- | --- |
| B1 | 4.13 | 0.0228 | 1.33 | 0.0544 |
| B2 | 1.1 | 0.0682 | 0.143 | 0.183 |
| B3 | 1.09 | 0.0629 | 0.279 | 0.179 |
| B4 | 0.746 | 0.118 | 0.188 | 0.15 |
| B5 | 1.36 | 0.0562 | 0.197 | 0.132 |
| B6 | 2.97 | 0.0464 | 1.19 | 0.0435 |
| B7 | 2.15 | 0.079 | 1.85 | 0.0352 |
| B8 | 1.2 | 0.0732 | 0.393 | 0.172 |
| B9 | < 0.00741 | > 30 | 0.00357 | 14 |
| B10 | < 0.00741 | > 30 | 0.00353 | 14.5 |
